Assay results published in patent publication US20140037708A1, “COMPOSITION FOR SPATIO AND/OR TEMPORAL RELEASE OF BIOACTIVE MATERIAL” (The Regents of the University of Colorado, a body corporate, priority 2012, published 2014).

Assay: Double-sided release test of fluorescent molecules from electrospun scaffolds in custom-made diffusion chambers
Assay type: physicochemical
Procedure: For molecule release characterizations, the circular samples with 24 mm in diameter were cut from PCL-PLGAac and PCL-PLGAes scaffolds loaded with fluorescent dye or fluorescently-labeled albumin. For each experimental condition, 3 samples were used for analyses. Scaffold samples were placed in a custom-made diffusion-test system in which a sample was sandwiched between two reservoir chambers. Each side of the electrospun scaffolds thus faced a different reservoir filled with 1 ml of buffer solution. The reservoirs used SecureSeal hybridization chambers (Grace Biolabs, Bend, Oreg.) which tightly sealed the surface. Each reservoir had small holes for sampling and changing solutions. The holes were covered with silicone sealing tap during experiments to prevent evaporation. Thus, the molecule movements between the reservoirs could only be through the pores of the electrospun materials. The release tests were performed at 37° C. Samples of buffer solutions in both reservoirs were collected every day during the first 16 days, and subsequently once a week for scaffolds loaded with fluorescent albumins. A shorter release experiment was performed in case of electrospun scaffolds loaded with Rh123. After samples were taken, the reservoir chambers were rapidly rinsed with DI water and refilled with fresh phosphate buffer at 37° C. […] The geometry and porosity of the molecule-releasing scaffolds kept constant for all the experimental samples. For the designs with multiple molecules, as various fluorophores could be simultaneously released by the samples, the possibility of the overlap of the fluorophore emission spectra was examined; we could find no overlaps in the interested spectrum ranges. […] For each type of molecule, the efficiency of separation between Side A and Side B, Smolecule—A-B, was defined as the percentage of the molecule released on Side A over the total amount of the molecule released on Sides A and B during the entire experimental duration.
To assess the potential use of PCL-PLGAac and PCL-PLGAes materials for spatially controlled release of active molecules, release experiments were performed using Rh123. PCL and PLGA/Rh123 solutions were electrospun to prepare scaffolds following the pattern described in FIG. 1. Release studies were carried out in custom-made diffusion chambers illustrated in FIG. 7a. The two sealed reservoirs filled with phosphate buffer solution were placed on the opposite sides of the electrospun scaffolds. The PCL side of the scaffold was set to face the buffer reservoir chamber on Side “A”; the Rh123-impregnated PLGA side was placed in contact with the buffer reservoir on Side “B”. […] The separation efficiency of Rh123 between the two surfaces (SRh123—B-A) of the PCL-PLGAac scaffolds was 82±5% during the 9-day release experiment. […] In addition, after day 3, the molecule concentration measured on the PCL side exceeded that on the PLGAes side.

Substance: fluorescein isothiocyanate conjugate bovine serum albumin [AlbF]
- separation efficiency (release of two proteins to one side) (PCL-PLGAac composite scaffold, AlbF in inner PLGAac fibers, AlbT in outer PLGAac fibers (FIG. 10a)): 87±5%
- separation efficiency between side B and side A (sequential release scaffold) (PCL/PLGA scaffold with dual PLGA gradient patterns: AlbF-loaded PLGA in the middle, AlbT-loaded PLGA close to side B (FIG. 11a)): 0.92±0.03
- separation efficiency of AlbF between Side A and Side B (SAlbF A-B) (PLGAac-PCL-PLGAac composite scaffold, release to opposite sides (FIG. 12)): 91±4%
- initial release rate on Side B compared to AlbT (dual-protein PCL-PLGAac scaffold, first 10 days, cumulative release normalized to total delivered protein): slower rate
- day on which daily net release to side B peaked (sequential release scaffold (FIG. 11), first 12 days): 5 days
